Measured values published in the supplement of paper PMC10567573.

B1: CSTF3 (parent)
chain: YVPEKVKKAEKKLEENPYDLDAWS

Variants of: B1
Test: protein stability index of a GFP-peptide fusion (GPS, HEK-293T) (PSI 1-6); higher = more stable
Settings: c terminus: a fixed tail appended
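Also: lentivirally expressed fusions sorted by FACS into six bins by GFP to DsRed ratio, PSI derived from sequencing read proportions per bin multiplied by bin number.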

Protein stability index: each site, then its substitutions
K12: N 2.92 | P 3.32 | V 2.59 | A 2.82 | H 3.19 | I 2.7 | C 2.49 | F 3.31 | Y 2.72 | W 2.9 | D 2.9 | R 2.88 | S 3.79 | L 2.95 | G 2.68 | Q 3.16 | T 3.28 | E 2.41 | M 2.6
K5: H 2.28 | R 2.72 | S 3.44 | G 2.25 | M 2.04 | V 2.32 | L 2.07 | I 2.95 | Y 3.04 | E 1.77 | C 2.71 | T 2.93 | F 2.19 | Q 2.73 | N 3.5 | A 1.62 | W 2.45 | D 1.9 | P 2.55
E4: K 3.35 | I 2.8 | N 2.19 | V 2.69 | Y 3.67 | Q 3.41 | F 2.49 | M 1.9 | G 2.58 | R 2.8 | T 2.56 | S 1.62 | H 2.44 | P 2.3 | W 2.28 | A 3.03 | C 2.43
E10: Q 3.08 | I 1.86 | D 1.92 | N 3.24 | C 3.32 | F 2.32 | T 1.74 | H 3.67 | P 2 | M 1.55 | R 2.63 | G 2.97 | V 2.18 | W 1.98 | Y 2.86 | K 3.68 | S 2.56 | A 1.93
E14: A 2.61 | P 3.04 | I 3.95 | N 2.18 | F 1.88 | K 2.88 | G 2.17 | W 3.09 | H 2.92 | T 2.26 | C 3.58 | S 3.27 | L 2.35 | Y 2.2 | R 2.36 | V 2.25 | Q 2.02
P17: V 1.43 | R 2.29 | H 2.04 | C 2.34 | F 1.95 | M 2.48 | T 3.18 | Y 2.43 | L 3.01 | K 1.32 | S 2.37 | I 2.32 | W 2.5 | Q 1.22 | A 2.45 | N 2.52 | G 2.39 | D 3.55 | E 2.63
Y1: P 5.24 | S 5.23 | R 5.17 | M 4.81 | N 5.14 | L 4.43 | Q 5.31 | E 5.59 | T 4.88 | F 2.56 | H 3.9 | A 5.5 | I 4.63 | V 4.97 | D 5.2 | K 5.08 | C 4.97 | G 5.31 | W 4.24
N16: W 2.08 | L 3.68 | P 1.67 | E 3.13 | I 1.05 | T 2.27 | C 1.67 | Y 2.56 | D 2.73 | K 3.09 | S 2.65 | M 1.81 | A 2.04 | G 2.54 | R 2.64 | F 3.03 | Q 2.24
E15: C 2.68 | P 2.47 | A 3.94 | Q 3.42 | F 2.55 | K 3.45 | D 2.86 | V 3.54 | G 2.88 | H 2.05 | L 3.23 | R 3.05 | T 1.58 | Y 3.42 | S 3.34 | M 2.99 | W 2.8
L13: W 2.45 | F 2.02 | M 3.19 | P 2.46 | Q 2.36 | E 2.86 | D 2.22 | T 1.92 | S 3.52 | V 2.21 | I 3.1 | H 2.49 | K 2.5 | A 2.25 | Y 1.87 | R 2.67 | G 2.23
A9: H 2.85 | V 2.64 | Q 2.11 | P 4.02 | F 3.1 | K 2.59 | C 2.11 | T 2.66 | W 3.31 | Y 3.21 | L 2.32 | D 1.65 | G 3.46 | S 2.27 | M 2.16 | I 2.59 | R 3.47 | E 1.96
K8: F 3.78 | A 3.58 | S 3.26 | Y 1.72 | D 2.48 | N 2.92 | E 2.9 | R 2.54 | W 3.37 | Q 3.12 | M 2.97 | V 2.21 | C 2.34 | T 2.37 | H 2.27 | I 3.65
K7: C 2.12 | S 2.47 | P 3.13 | H 3.08 | D 2.54 | Y 2.48 | T 2.94 | A 2.17 | N 3.83 | I 2.17 | E 2.56 | G 1.91 | V 1.91 | F 2.26 | Q 2 | R 2.73 | M 1.52 | L 3.11 | W 2.89
P3: V 1.97 | F 1.89 | S 2.23 | H 2.47 | M 1.79 | R 2.44 | W 1.76 | K 2.15 | E 2.7 | Y 3.21 | I 1.99 | L 1.74 | G 2.28 | T 2.35 | Q 1.89 | A 2.27 | N 2.12 | D 2.69 | C 2.46
Y18: Q 2.17 | V 1.45 | H 2.12 | K 3.33 | F 2.55 | L 2.15 | G 2.35 | S 2.46 | W 1.61 | M 2.58 | T 2.27 | P 2.71 | A 2.62 | N 2.38 | R 2.77 | D 5.04 | I 2.47 | E 1.93 | C 2.88
K11: Q 3.48 | S 2.66 | G 2.01 | N 2.67 | E 2.54 | V 3.77 | R 2.94 | I 3.43 | P 2.65 | D 2.07 | W 2.4 | L 2.31 | M 2.42 | C 2.65 | Y 2.72 | F 2.06 | A 2.32
D19: S 2.91 | P 2.59 | T 2.34 | K 3.97 | Q 3.34 | R 2.04 | M 2.14 | I 2.28 | E 2.57 | L 1.62 | G 3.95 | A 2.2 | N 2.54 | H 1.58
V2: G 4.5 | K 4.25 | F 4.31 | Y 4.37 | W 3.94 | I 2.33 | R 4.48 | S 4.67 | H 2.25 | C 2.32 | T 3.18 | D 4.2 | E 4.84 | L 4.51 | M 3.92 | N 4.47 | A 1.92 | P 3.87 | Q 4.07
V6: R 1.35 | T 1.58 | N 2.72 | D 2.22 | Q 2.35 | G 2.04 | I 3.77 | H 2.04 | E 2 | M 2.66 | P 1.26 | S 2.15 | W 2.57 | Y 2.75
